Results: patent US20100092465A1, “TREATMENT OF GRAFT-VERSUS-HOST DISEASE” (priority 2006, published 2010)
Values joined by “and” are separate entries in the source; they are usually repeats but may differ in a detail not shown here. Equal entries are not always repeated. One block for each substance: values may come before it.

Tests used:
[1] = molecular target: single-chain human IL-27 (amino-terminal peptide tag, EBI3, polypeptide linker, IL-27 p28) (human) (UniProt Q14213); assay: cell-based or functional assay
[2] = molecular target: single-chain mouse IL-27 (FLAG tag, mouse EBI3, 17 amino acid linker, mouse IL-27 p28) (mouse) (UniProt O35228); assay: cell-based or functional assay
[3] = molecular target: single-chain mouse IL-27 (FLAG tag, mouse EBI3, 17 amino acid linker, mouse IL-27 p28) (mouse) (UniProt O35228); assay: SPR, BIACORE 3000; receptor captured by anti-mouse Fc antibody, ligand (lot A1418F) injected; 1:1 model with mass transport
[4] = molecular target: single-chain human IL-27 (amino-terminal peptide tag, EBI3, polypeptide linker, IL-27 p28) (human) (UniProt Q14213); assay: SPR, BIACORE 3000; receptor amine-coupled to the chip, ligand (A1534F) injected; 1:1 model with mass transport
[5] = molecular target: single-chain mouse IL-27 (FLAG tag, mouse EBI3, 17 amino acid linker, mouse IL-27 p28) (mouse) (UniProt O35228); assay: SPR, BIACORE 3000; receptor amine-coupled to the chip, ligand (A1426F) injected; 1:1 model with mass transport
[6] = molecular target: IL-27 receptor on total human PBMCs (human) (UniProt Q6UWB1); assay: cell-based or functional assay
[7] = molecular target: IL-27 receptor on mouse spleen cells (mouse) (UniProt O70394); assay: cell-based or functional assay
[8] = molecular target: IL-27 receptor (IL-27RA and gp130) on BHK-mIL-27R cells (mouse) (UniProt O70394); assay: saturation binding of 125I-labeled ligand to BHK-mIL-27R cells; average of three studies
[9] = molecular target: IL-27 receptor (IL-27RA and gp130) on BHK-mIL-27R cells (mouse) (UniProt O70394); assay: saturation binding of 125I-labeled ligand to BHK-mIL-27R cells, 4 hours on ice, gamma counter

IL-27 receptor on total human PBMCs (human), sequence (Q6UWB1 33-636, chain 1 of 2): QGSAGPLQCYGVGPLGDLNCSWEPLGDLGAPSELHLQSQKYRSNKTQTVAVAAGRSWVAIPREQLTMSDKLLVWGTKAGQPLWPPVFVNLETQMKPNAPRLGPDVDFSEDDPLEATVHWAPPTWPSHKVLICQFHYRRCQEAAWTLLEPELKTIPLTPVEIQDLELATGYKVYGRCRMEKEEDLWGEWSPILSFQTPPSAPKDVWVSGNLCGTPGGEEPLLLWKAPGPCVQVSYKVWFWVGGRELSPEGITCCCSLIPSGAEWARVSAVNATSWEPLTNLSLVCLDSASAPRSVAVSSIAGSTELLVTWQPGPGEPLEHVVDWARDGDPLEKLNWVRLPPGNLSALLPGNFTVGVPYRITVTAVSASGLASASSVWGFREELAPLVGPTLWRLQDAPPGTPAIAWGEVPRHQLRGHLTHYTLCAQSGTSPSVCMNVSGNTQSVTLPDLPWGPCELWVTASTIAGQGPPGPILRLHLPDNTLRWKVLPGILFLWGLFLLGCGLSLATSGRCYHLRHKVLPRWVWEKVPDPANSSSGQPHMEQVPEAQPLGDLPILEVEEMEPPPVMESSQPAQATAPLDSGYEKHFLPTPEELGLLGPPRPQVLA
IL-27 receptor on total human PBMCs (human), sequence (P40189 23-918, chain 2 of 2, further chain): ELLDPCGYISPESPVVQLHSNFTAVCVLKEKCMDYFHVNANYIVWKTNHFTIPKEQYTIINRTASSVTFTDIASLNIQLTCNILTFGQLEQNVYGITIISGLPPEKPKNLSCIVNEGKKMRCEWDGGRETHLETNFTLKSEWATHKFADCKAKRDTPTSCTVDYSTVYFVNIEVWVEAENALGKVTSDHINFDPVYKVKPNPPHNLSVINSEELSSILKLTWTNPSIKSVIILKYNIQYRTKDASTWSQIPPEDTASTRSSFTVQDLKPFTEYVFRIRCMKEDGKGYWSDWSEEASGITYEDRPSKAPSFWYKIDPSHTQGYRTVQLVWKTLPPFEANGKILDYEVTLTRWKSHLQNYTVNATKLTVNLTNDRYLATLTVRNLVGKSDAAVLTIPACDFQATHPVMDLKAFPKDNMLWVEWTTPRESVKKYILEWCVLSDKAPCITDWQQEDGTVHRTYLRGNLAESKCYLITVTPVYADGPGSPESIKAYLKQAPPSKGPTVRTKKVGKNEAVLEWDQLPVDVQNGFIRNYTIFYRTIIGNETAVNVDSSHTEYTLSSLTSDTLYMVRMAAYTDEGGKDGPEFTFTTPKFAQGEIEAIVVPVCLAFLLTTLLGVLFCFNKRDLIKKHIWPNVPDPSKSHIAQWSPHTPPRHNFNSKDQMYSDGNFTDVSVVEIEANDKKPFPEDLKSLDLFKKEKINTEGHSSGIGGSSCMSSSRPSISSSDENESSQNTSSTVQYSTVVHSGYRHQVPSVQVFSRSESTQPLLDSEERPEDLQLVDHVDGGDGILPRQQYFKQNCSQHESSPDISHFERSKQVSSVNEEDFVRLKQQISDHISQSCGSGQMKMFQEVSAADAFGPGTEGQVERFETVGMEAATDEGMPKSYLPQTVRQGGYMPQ
IL-27 receptor on mouse spleen cells (mouse), sequence (O70394 25-623, chain 1 of 2): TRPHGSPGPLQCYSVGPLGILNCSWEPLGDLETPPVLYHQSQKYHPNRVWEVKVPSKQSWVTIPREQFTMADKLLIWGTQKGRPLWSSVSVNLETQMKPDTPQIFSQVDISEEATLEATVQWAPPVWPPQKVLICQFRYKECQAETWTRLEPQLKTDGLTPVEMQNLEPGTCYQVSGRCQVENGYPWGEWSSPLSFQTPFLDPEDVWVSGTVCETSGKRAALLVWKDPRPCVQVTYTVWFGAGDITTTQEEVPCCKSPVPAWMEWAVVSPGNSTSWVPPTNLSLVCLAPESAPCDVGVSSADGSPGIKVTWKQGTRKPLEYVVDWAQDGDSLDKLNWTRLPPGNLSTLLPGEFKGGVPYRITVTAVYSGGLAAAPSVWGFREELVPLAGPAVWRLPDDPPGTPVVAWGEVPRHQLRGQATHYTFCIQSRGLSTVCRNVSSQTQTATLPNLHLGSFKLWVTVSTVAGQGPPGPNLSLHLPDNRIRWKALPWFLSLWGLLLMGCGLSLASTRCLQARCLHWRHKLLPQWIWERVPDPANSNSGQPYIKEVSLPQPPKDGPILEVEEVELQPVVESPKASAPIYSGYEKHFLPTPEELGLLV
IL-27 receptor on mouse spleen cells (mouse), sequence (Q00560 23-917, chain 2 of 2, further chain): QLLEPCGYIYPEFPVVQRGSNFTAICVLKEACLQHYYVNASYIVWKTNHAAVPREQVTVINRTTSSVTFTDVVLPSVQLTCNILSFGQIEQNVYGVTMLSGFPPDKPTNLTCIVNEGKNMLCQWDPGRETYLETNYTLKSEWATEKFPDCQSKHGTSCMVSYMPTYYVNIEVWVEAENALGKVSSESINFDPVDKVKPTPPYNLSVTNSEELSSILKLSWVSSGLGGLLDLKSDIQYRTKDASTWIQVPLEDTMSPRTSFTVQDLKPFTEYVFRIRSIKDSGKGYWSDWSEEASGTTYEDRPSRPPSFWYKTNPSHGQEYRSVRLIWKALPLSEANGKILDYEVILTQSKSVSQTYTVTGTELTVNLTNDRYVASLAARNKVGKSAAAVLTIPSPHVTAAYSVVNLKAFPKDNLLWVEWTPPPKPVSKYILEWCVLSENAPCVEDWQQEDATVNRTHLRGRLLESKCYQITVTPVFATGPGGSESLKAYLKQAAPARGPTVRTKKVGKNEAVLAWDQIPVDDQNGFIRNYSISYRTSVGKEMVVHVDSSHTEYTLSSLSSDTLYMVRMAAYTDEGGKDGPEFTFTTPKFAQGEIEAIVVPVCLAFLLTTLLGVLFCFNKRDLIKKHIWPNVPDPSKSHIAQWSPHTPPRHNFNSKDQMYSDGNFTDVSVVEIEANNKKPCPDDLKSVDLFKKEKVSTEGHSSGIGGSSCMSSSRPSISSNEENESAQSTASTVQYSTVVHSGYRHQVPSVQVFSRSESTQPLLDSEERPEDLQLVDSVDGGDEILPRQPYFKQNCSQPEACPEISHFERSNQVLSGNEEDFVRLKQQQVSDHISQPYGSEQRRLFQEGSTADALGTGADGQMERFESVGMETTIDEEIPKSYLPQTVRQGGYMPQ

IC50 (nM), phospho-STAT3 in mouse spleens, ligand at EC90 [1]: 9.3 nM
IC50 (nM), phospho-STAT3 in total human PBMCs, ligand at EC90 [1]: 1370 nM
IC50 (nM), phospho-STAT3 in mouse spleens, ligand at EC90 [2]: 0.18 nM
IC50 (nM), phospho-STAT3 in total human PBMCs, ligand at EC90 [2]: 4.83 nM
IL-2 concentration, 48 hr, mIL-27RA 5 ug/ml + IL-27 [2]: 4020 pg/mL
IL-2 concentration, 48 hr, mIL-27RA 10 ug/ml + IL-27 [2]: 5220 pg/mL
IL-2 concentration, 48 hr, mIL-27RA 10 ug/ml + IL-27 (second row) [2]: 4920 pg/mL
IL-2 concentration, 72 hr, mIL-27RA 5 ug/ml + IL-27 [2]: 5740 pg/mL
IL-2 concentration, 72 hr, mIL-27RA 10 ug/ml + IL-27 [2]: 6700 pg/mL
IL-2 concentration, 72 hr, mIL-27RA 10 ug/ml + IL-27 (second row) [2]: 12200 pg/mL
block of the ability of mouse IL-27 to inhibit IL-2 production by naive CD4 T cells [2]: 50%
koff [3]: 0.0012 s⁻¹
kon [3]: 1e+07 M⁻¹ s⁻¹
Substance: IL27RAm(mFc1): extracellular domain of mouse IL27RA fused to a wild type BALB/c mouse gamma2a constant region Fc tag (from UniProt O70394 25-510) (Fc fusion)

koff [4]: 0.0019 s⁻¹
kon [4]: 1e+07 M⁻¹ s⁻¹
koff [5]: 0.0018 s⁻¹
kon [5]: 8.1e+06 M⁻¹ s⁻¹
IC50 (nM), phospho-STAT3 in mouse spleens, ligand at EC90 [1]: 0.32 nM
IC50 (nM), phospho-STAT3 in total human PBMCs, ligand at EC90 [1]: 0.95 nM
IC50 (nM), phospho-STAT3 in mouse spleens, ligand at EC90 [2]: 0.14 nM
IC50 (nM), phospho-STAT3 in total human PBMCs, ligand at EC90 [2]: 2.97 nM
IL-2 concentration, 48 hr, hIL-27RA 5 ug/ml + IL-27 [2]: 5780 pg/mL
IL-2 concentration, 48 hr, hIL-27RA 10 ug/ml + IL-27 [2]: 5770 pg/mL
IL-2 concentration, 48 hr, hIL-27RA 10 ug/ml + IL-27 (second row) [2]: 5330 pg/mL
IL-2 concentration, 72 hr, hIL-27RA 5 ug/ml + IL-27 [2]: 1870 pg/mL
IL-2 concentration, 72 hr, hIL-27RA 10 ug/ml + IL-27 [2]: 28600 pg/mL
IL-2 concentration, 72 hr, hIL-27RA 10 ug/ml + IL-27 (second row) [2]: 17500 pg/mL
block of the ability of mouse IL-27 to inhibit IL-2 production by naive CD4 T cells [2]: 50%
Substance: human IL27RA-Fc5 fusion protein (Fc fusion)

EC90 concentration, STAT3 phosphorylation (BIO-PLEX Phospho-Stat3 assay), total human PBMCs [6]: 2 nM
EC90 concentration, STAT3 phosphorylation (BIO-PLEX Phospho-Stat3 assay), mouse spleens [7]: 2 nM
Substance: single-chain human IL-27 (amino-terminal peptide tag, EBI3, polypeptide linker, IL-27 p28) (from UniProt Q14213 21-229; Q8NEV9 29-243) (ligand)

Kd [8]: 1.14 nM
Kd [9]: 0.9 nM and 1.35 nM and 1.16 nM
EC90 concentration, STAT3 phosphorylation (BIO-PLEX Phospho-Stat3 assay), total human PBMCs [6]: 2 nM
EC90 concentration, STAT3 phosphorylation (BIO-PLEX Phospho-Stat3 assay), mouse spleens [7]: 0.2 nM
Substance: single-chain mouse IL-27 (FLAG tag, mouse EBI3, 17 amino acid linker, mouse IL-27 p28) (from UniProt O35228 19-228; Q8K3I6 29-234) (ligand)
